This data set relates to T1, His-OsWOX3A (Oryza sativa), ORF:198cabac.
T1 sequence: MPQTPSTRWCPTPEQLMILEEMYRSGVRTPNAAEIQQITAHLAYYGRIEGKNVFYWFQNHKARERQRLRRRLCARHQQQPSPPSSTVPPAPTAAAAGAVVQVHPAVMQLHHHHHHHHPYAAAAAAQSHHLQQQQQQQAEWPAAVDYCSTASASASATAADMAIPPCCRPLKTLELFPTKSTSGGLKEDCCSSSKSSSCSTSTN
Kind of data set: EMSA. The following applies: 10 mM Tris pH 7.5, 50 mM KCl, 1 mM DTT (from 10x buffer) plus about 50 mM KCl, 5 mM MgCl2, 10 mM EDTA, 2.5% glycerol, 0.05% NP-40, 50 ng/ul poly(dG-dC); room ….

In the case of “TACAAAACTCACTACTAGTAATTAAGTGTTGAGGGTTCGAGAACAAATTAATTAATCGCCAAATAATGCATCACAAACATCATCAACCTAGTTATCGGTT (double strand) [KAO-W1]”, the binding result is “binds”.

Source of the values: PMC4783357.
